Assay results from patent publication US20120253017A1.
Values belong to the substance of their own block, whether it stands above or below them.

Key:
[1] = target: mouse c-kit (recombinant, on BIAcore chip) (mouse) (UniProt P05532); assay: BIAcore, mouse cKIT on high density CM5 chip
[2] = target: mouse Stem Cell Factor, 6xHIS tag (mouse) (UniProt P20826); assay: BIAcore, SCF on CM5 chip
[3] = target: human Stem Cell Factor, 6xHIS tag (human) (UniProt P21583); assay: BIAcore, SCF on CM5 chip
[4] = target: mouse Stem Cell Factor, 6xHIS tag (mouse) (UniProt P20826); assay: BIAcore, SCF on high density CM5 chip
[5] = target: rat Stem Cell Factor, GlySerHis(6) tag (rat) (UniProt P21581); assay: BIAcore, SCF on high density CM5 chip
Chain of rat Stem Cell Factor, GlySerHis(6) tag (rat) (P21581 other isoform, or with tags, fused parts or gaps limits assumed): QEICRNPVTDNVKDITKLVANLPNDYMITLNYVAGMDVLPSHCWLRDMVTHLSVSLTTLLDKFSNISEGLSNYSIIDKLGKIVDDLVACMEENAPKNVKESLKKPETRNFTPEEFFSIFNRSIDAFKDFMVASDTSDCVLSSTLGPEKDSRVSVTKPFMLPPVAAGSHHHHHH

Chain of mouse Stem Cell Factor, 6xHIS tag (mouse) (P20826 26-190 limits assumed): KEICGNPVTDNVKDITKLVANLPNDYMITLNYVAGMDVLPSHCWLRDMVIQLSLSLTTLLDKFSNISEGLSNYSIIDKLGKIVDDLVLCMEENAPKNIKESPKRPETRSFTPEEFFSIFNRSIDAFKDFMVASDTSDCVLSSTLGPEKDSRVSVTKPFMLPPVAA
Chain of human Stem Cell Factor, 6xHIS tag (human) (P21583 26-190 limits assumed): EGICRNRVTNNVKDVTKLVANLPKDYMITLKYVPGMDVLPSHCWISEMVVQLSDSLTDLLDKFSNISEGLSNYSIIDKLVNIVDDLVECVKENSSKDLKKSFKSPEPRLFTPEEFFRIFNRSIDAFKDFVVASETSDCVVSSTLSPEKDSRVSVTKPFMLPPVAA

response (RU) [1]: 100 RU
Substance: anti mouse cKIT antibody clone 2B8

Kd [2]: 15 nM
Kd [3]: 9.78 nM
Substance: Cyno cKIT ECD-Fc (from UniProt O95905) (Fc fusion)

Kd [4]: 26 nM
Kd [5]: 81 nM
Substance: mcKIT GNNK+ E207A (from UniProt P05532 25-527) (Fc fusion)
